Experimental data taken from US20060263802A1 (CRUCELL HOLLAND B V, published 2006).

Legend:
Assay in all cases: PEPSCAN ELISA, looped 15-mer, 10 ug/ml
[1] = target: looped peptide … (rabies virus strain ERA)
[2] = target: looped peptide … (rabies virus strain ERA); remark: listed apart in the source
looped peptide […] [3] = target: looped peptide […] (rabies virus strain ERA)
[4] = target: looped peptide … (rabies virus strain ERA); remark: listed apart in the source
looped peptide […] [5] = target: looped peptide […] (rabies virus strain ERA); remark: listed apart in the source
[6] = target: looped peptide … (rabies virus strain ERA); remark: listed apart in the source
[7] = target: looped peptide … (rabies virus strain ERA); remark: listed apart in the source
looped peptide […] [8] = target: looped peptide […] (rabies virus strain ERA); remark: listed apart in the source
[9] = target: looped peptide … (rabies virus strain ERA); remark: listed apart in the source
[10] = target: looped peptide … (rabies virus strain ERA); remark: listed apart in the source
looped peptide […] [11] = target: looped peptide […] (rabies virus strain ERA); remark: listed apart in the source
looped peptide […] [12] = target: looped peptide […] (rabies virus strain ERA); remark: listed apart in the source
[13] = target: looped peptide … (rabies virus strain ERA); remark: listed apart in the source
[14] = target: looped peptide … (rabies virus strain ERA); remark: listed apart in the source
looped peptide […] [15] = target: looped peptide […] (rabies virus strain ERA); remark: listed apart in the source

B1: human monoclonal antibody CRJB (antibody, V domains shown)
VH: QITLKETGPTLVKPTQTLTLTCTFSGFSLSTSGVGVGWIRQPPGKALEWVTLIYWDDDKRYSPSLENRVTIRKDTSKNQVALTMTNMDPLDTGTYYCAHRQHISSFPWFDSWGQGTLVTVSS
VL: SYVLTQPPSVSVAPGKTARINCGGNNIEYRSVHWYQQKSGQAPVAVIYDNSDRPSGIPERFSGSKSGNTATLTISRVEAGDEADYYCQVWDISSDVVFGGGTKLTVLG
[1]
  OD value: 72
[2]
  OD value: 79
Looped peptide […] [3]
  OD value: 132
[4]
  OD value: 60
Looped peptide […] [5]
  OD value: 87
[6]
  OD value: 74
[7]
  OD value: 76
Looped peptide […] [8]
  OD value: 156
[9]
  OD value: 79
[10]
  OD value: 92
Looped peptide […] [11]
  OD value: 206
Looped peptide […] [12]
  OD value: 186
[13]
  OD value: 63
[14]
  OD value: 68
Looped peptide […] [15]
  OD value: 71
